Reference: article PMC9638019, “The archetypal gene transfer agent RcGTA is regulated via direct interaction with the enigmatic RNA polymerase omega subunit”
Each block holds one molecule with its values, some of them ahead of it.

How the values were obtained:
[1] = biological target: MBP-GafA-C^221–382 (R. capsulatus); assay: SEC; analytical gel filtration, Superdex 200 increase 10/200 GL, MBP binding buffer (200 mM NaCl, 20 mM Tris, 1 mM EDTA; pH 7.4); molecular weight estimated from a standard curve
[2] = biological target: Maltose Binding Protein-GafA fusion protein (R. capsulatus); assay: as above
[3] = biological target: MBP-GafA-Cx^87–382 (R. capsulatus); assay: as above
GafA-Nc1-86 [4] = biological target: T1, GafA-Nc1-86 (UniProt D5AUH1 1-86); assay: EMSA; specific: shift remains with 500-fold non-specific competitor; 25 mM HEPES pH 8.0, 50 mM K-glutamate, 50 mM MgSO4, 1 mM DTT, 0.1 mM EDTA, 0.05% Triton X-100, 4% glycerol, 1 ug poly dI:dC per 10 ul, 80 nM Cy5-dsDNA, 30 min room temperature; 7% acrylamide, 1x TBE; settings: protein: recombinant; tags: none (MBP removed with 3C protease); label: 5'-Cy5 on one strand; blunt
T1 sequence: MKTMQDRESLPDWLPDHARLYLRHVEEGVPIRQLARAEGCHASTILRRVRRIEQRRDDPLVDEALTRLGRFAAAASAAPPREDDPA

GafA-Nc1-86 [5] = biological target: T1, GafA-Nc1-86; assay: EMSA; non-specific; 25 mM HEPES pH 8.0, 50 mM K-glutamate, 50 mM MgSO4, 1 mM DTT, 0.1 mM EDTA, 0.05% Triton X-100, 4% glycerol, 1 ug poly dI:dC per 10 ul, 80 nM Cy5-dsDNA, 30 min room temperature; 7% acrylamide, 1x TBE; settings: protein: recombinant; tags: none (MBP removed with 3C protease); label: 5'-Cy5 on one strand; blunt
GafA-Nc1-86 [6] = biological target: T1, GafA-Nc1-86; assay: EMSA; non-specific: shift lost with 500-fold non-specific competitor; 25 mM HEPES pH 8.0, 50 mM K-glutamate, 50 mM MgSO4, 1 mM DTT, 0.1 mM EDTA, 0.05% Triton X-100, 4% glycerol, 1 ug poly dI:dC per 10 ul, 80 nM Cy5-dsDNA, 30 min room temperature; 7% acrylamide, 1x TBE; settings: protein: recombinant; tags: none (MBP removed with 3C protease); label: 5'-Cy5 on one strand; blunt
MBP-GafA-C221-382 = biological target: T2, MBP-GafA-C221-382 (UniProt D5AUH1 221-382); assay: EMSA; poly dI:dC; 25 mM HEPES pH 8.0, 50 mM K-glutamate, 50 mM MgSO4, 1 mM DTT, 0.1 mM EDTA, 0.05% Triton X-100, 4% glycerol, 1 ug poly dI:dC per 10 ul, 80 nM Cy5-dsDNA, 30 min room temperature; 7% acrylamide, 1x TBE; settings: protein: recombinant; tags: N-terminal MBP; chain copies: 2; label: 5'-Cy5 on one strand; blunt
T2 sequence: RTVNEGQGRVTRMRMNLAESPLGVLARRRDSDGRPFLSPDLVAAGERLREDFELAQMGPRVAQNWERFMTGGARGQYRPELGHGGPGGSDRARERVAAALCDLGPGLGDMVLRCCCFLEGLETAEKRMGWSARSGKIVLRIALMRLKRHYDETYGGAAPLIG

stoichiometry N [1]: 2
Molecule: MBP-GafA-C^221–382 (domain or fragment)

stoichiometry N [2]: 2
Molecule: Maltose Binding Protein-GafA fusion protein (natural protein)

stoichiometry N [3]: 2
Molecule: MBP-GafA-Cx^87–382 (domain or fragment)

B1: pGTA1 (dsDNA)
DNA 1: TCCGGGGTTTTTTCTTTTCAGCGGGTGCAACCCTGAATATAGCACTTGAC
DNA 2: GTCAAGTGCTATATTCAGGGTTGCACCCGCTGAAAAGAAAAAACCCCGGA
binding result (GafA-Nc1-86 [4]): binds

B2: pGafA2 (dsDNA)
DNA 1: TGCAGATGCCGTTTGCGCTATCTGACTGCCAGCCTGTCGATGGGAGACCGGAGATGAAGA
DNA 2: TCTTCATCTCCGGTCTCCCATCGACAGGCTGGCAGTCAGATAGCGCAAACGGCATCTGCA
binding result (GafA-Nc1-86 [5]): binds

B3: pGTA3 (dsDNA)
DNA 1: GCGCCGCGGGTGACCGTGTGCGCTTTTTTCATTTCGCTCGTGCGGACAGG
DNA 2: CCTGTCCGCACGAGCGAAATGAAAAAAGCGCACACGGTCACCCGCGGCGC
binding result (GafA-Nc1-86 [4]): binds

B4: pGTA4 (dsDNA)
DNA 1: TTCATTTCGCTCGTGCGGACAGGCATGAGAGGCGGGTCACGCAAGACATG
DNA 2: CATGTCTTGCGTGACCCGCCTCTCATGCCTGTCCGCACGAGCGAAATGAA
binding result (GafA-Nc1-86 [6]): binds

B5: pGafA1 (dsDNA)
DNA 1: TCGAGATCGCCCCATTTCTTAACCAAGGGGTAACCAAAGCAACCCACGGT
DNA 2: ACCGTGGGTTGCTTTGGTTACCCCTTGGTTAAGAAATGGGGCGATCTCGA
binding result (GafA-Nc1-86 [5]): binds

B6: pGafA3 (dsDNA)
DNA 1: CGCTCAACCGAACGCTGCGTTTGGAAATCTTTAGAGTTTATAAAGAATTT
DNA 2: AAATTCTTTATAAACTCTAAAGATTTCCAAACGCAGCGTTCGGTTGAGCG
binding result (MBP-GafA-C221-382): binds

B7: pGTA2 (dsDNA)
DNA 1: TTTGCGAACGCTTCAAGGTAGAGATAAGGCATGCTAGGAGAGGTGGGCAA
DNA 2: TTGCCCACCTCTCCTAGCATGCCTTATCTCTACCTTGAAGCGTTCGCAAA
binding result (MBP-GafA-C221-382): binds
binding result (GafA-Nc1-86 [6]): binds
